Key:
[1] = biological target: hematopoietic growth factor receptor c-MPL (myeloproliferative leukemia), the receptor for thrombopoietin, transgenic on human T cells (Homo sapiens (Human)) (UniProt P40238); experiment: cell-based or functional assay
U266 myeloma cells = experiment: Co-culture of TCR+c-MPL+ T cells with U266 myeloma cells; format: cell-based, human; settings: rhTPO 50 ng/ml, IL2 25 U/ml, n=3
Procedure: (§1) Cells were stained ith antibodies and analyzed by flow cytometry. Cells were stained with FITC-, phycoerythrin- (PE-), peridinin chlorophyll protein-(PerCP-), or allophycocyanin-conjugated (APC-conjugated) antibodies (Abs) against CD3, CD4, CD8, CD110 (c-MPL), murine TCR constant region (mCβ, ebioscience), CD19, or CD138. Cell viability was assessed by 7-AAD staining. T cells and tumor cell populations from co-culture assays were quantified by adding CountBright Beads (Invitrogen) to the analysis. T cell memory marker expression on CD8+ T cells re-covered from co-cultures was analyzed by staining cells with FITC-, PE-, ECD-, PerCP-, APC-, APC-AF750, or V450-conjugated Abs against CD45RO, CD45RA, CD62L, CCR7, CD110, mCβ, CD19, and 7AAD. Intracellular staining for phosphoproteins pSTAT3 and pSTAT5 was performed with PE- and Pacific Blue-conjugated Abs and Phosflow reagents (BD). To assess cell proliferation, cells were labeled with Carboxyfluorescein succinimidyl ester (CFSE, ThermoFisher) and analyzed after 7 days of culture. All antibodies were purchased from BD or Beckman Coulter unless otherwise indicated, and all staining procedures were performed according to the manufacturer's recommendation. Data acquisition was performed on a BD FACSCalibur using CellQuest software or a Beckman Coulter Gallios flow cytometer using Kaluza software. […]

TCR+c-MPL+ T cells [2] = experiment: RNA-sequencing and GSEA of sequential killer T cells; format: cell-based, human; settings: after 3 BV173 challenges, rhTPO 50 ng/mL or EP 0.1 μg/mL
From the text: Total RNA was extracted from T cells of 3 independent donors, purified after sequential co-culture in no cytokine, rhTPO or EP (see above and FIG. 4A) using the RNeasy Mini Kit (Qiagen). T cell purification consisted of either dead cell removal alone (see above) or dead cell removal followed by FACS sorting (FACS Aria, BD, Flow Cytometry Core Laboratory at the Texas Children's Hospital Feigin Center), to achieve a >98% T cell purity and T cell viability of >90%. Total RNA samples were sent to GENEWIZ for library preparation and next generation sequencing, with 30 million reads per sample at a 1×50 base pair configuration.
RNA-Seq was performed in triplicates from 3 independent donors for all 3 conditions (control, rhTPO and EP; see main text). Fastq files were aligned to the transcriptome using HiSat2 with default parameters (Kim et al., 2015). Following alignment and quality control analysis, one replicate of the control dataset was removed due to poor signal to noise ratio. Transcripts were assembled and FPKM values were generated using cuffquant and cuffnorm from the cufflinks software suite (Trapnell et al., 2010) Active transcripts were defined as transcripts with a normalized FPKM value greater than 1 in at least one sample. […]

[3] = tested on: c-MPL downstream signaling in c-MPL+ T cells; experiment: Phosflow for pSTAT5, c-MPL downstream signaling; format: cell-based, human; settings: rhTPO 5 and 50 ng/ml; EP 0.1 μg/ml; 1 or 24 hours
Procedure: as §1

c-MPL+ T cells = experiment: Expansion of polyclonal c-MPL+ T cells in TPO; format: cell-based, human; settings: cell number from 3×10^6 cells, TPO 50 ng/ml, mean±SD, n=4
Procedure: (§2) […] Transient retroviral supernatant was prepared by transfection of 293T cells and activated T cells were transduced as described (Arber et al., 2015). The number of retroviral integrants in TCR+c-MPL+ T cells was estimated by quantitative PCR. Whole PBMC's were isolated from fresh buffy coats by Lymphoprep (Axis-Shield) density gradient centrifugation. If required, CD8+ T cells were isolated from PBMCs using magnetic beads and columns (Miltenyi Biotec). […]
(§3) Cells were stained ith antibodies and analyzed by flow cytometry. […] Cell viability was assessed by 7-AAD staining. T cells and tumor cell populations from co-culture assays were quantified by adding CountBright Beads (Invitrogen) to the analysis. T cell memory marker expression on CD8+ T cells re-covered from co-cultures was analyzed by staining cells with FITC-, PE-, ECD-, PerCP-, APC-, APC-AF750, or V450-conjugated Abs against CD45RO, CD45RA, CD62L, CCR7, CD110, mCβ, CD19, and 7AAD. […] To assess cell proliferation, cells were labeled with Carboxyfluorescein succinimidyl ester (CFSE, ThermoFisher) and analyzed after 7 days of culture. […]

[4] = tested on: immune synapses between TCR+c-MPL+ T cells and BV173 leukemia cells; experiment: Immunological synapse imaging (confocal microscopy); format: cell-based, human; settings: mean±SD
Procedure: T cells isolated from sequential killing co-cultures and fresh BV173 target cells were mixed at E:T 1:2, incubated for 10 minutes, fixed, permeabilized, stained with the appropriate antibodies, and analyzed on a Leica TCS SP8 laser scanning microscope. T cells were co-cultured with BV173 cells at an E:T ratio of 1:5 in CTL media with no cytokines, rhTPO (50 ng/mL) or EP (0.1 μg/mL). After one killing (no cytokine condition) or three sequential killings (rhTPO and EP conditions), cells were collected and dead cells removed (Dead Cell Removal Kit, Miltenyi) (FIG. 4A). For confocal microscopy, T cells and fresh BV173 target cells were mixed at E:T ratio of 1:2, incubated for ten minutes in a tube and ten minutes on silane-coated glass slides (Electron Microscopy Sciences) at 37° C. Cells were then permeabilized and fixed with Perm/Fix solution (BD) for 15 minutes at room temperature and stained with anti-Pericentrin (rabbit, Abcam) and anti-Perforin Alexa-488 (mouse, BD Biosciences) primary antibodies. Phalloidin 568 (Life Technologies) was used to detect F-actin. Cells were imaged as Z stacks of 0.2 μm thickness to cover their entire volume on a Leica TCS SP8 laser scanning microscope using a 100× objective. Images were acquired with the LASAF software (Leica) and analyzed with Imaris software (Imaris) and Fiji.

NT T cells = experiment: Expansion of non-transduced (NT) T cells in TPO; format: cell-based, human; settings: cell number from 3×10^6 cells, TPO 50 ng/ml, mean±SD, n=4
Procedure: as §2, §3

TCR+ T cells = experiment: Antigen-specific expansion with survivin peptide-pulsed aAPCs, TCR+ T cells; format: cell-based, human; settings: IL-2 50 U/mL; rhTPO up to 500 ng/ml
Procedure: At the end of the first stimulation (7 days), cells were collected, counted, phenotyped and re-stimulated with fresh peptide-pulsed aAPCs under the same conditions. Fold expansion was recorded at the end of the second stimulation.

BV173 leukemia cells [5] = experiment: Serial (sequential) co-culture with BV173 leukemia cells; format: cell-based, human
Procedure: Cells were stained ith antibodies and analyzed by flow cytometry. Cells were stained with FITC-, phycoerythrin- (PE-), peridinin chlorophyll protein-(PerCP-), or allophycocyanin-conjugated (APC-conjugated) antibodies (Abs) against CD3, CD4, CD8, CD110 (c-MPL), murine TCR constant region (mCβ, ebioscience), CD19, or CD138. Cell viability was assessed by 7-AAD staining. T cells and tumor cell populations from co-culture assays were quantified by adding CountBright Beads (Invitrogen) to the analysis. T cell memory marker expression on CD8+ T cells re-covered from co-cultures was analyzed by staining cells with FITC-, PE-, ECD-, PerCP-, APC-, APC-AF750, or V450-conjugated Abs against CD45RO, CD45RA, CD62L, CCR7, CD110, mCβ, CD19, and 7AAD. Intracellular staining for phosphoproteins pSTAT3 and pSTAT5 was performed with PE- and Pacific Blue-conjugated Abs and Phosflow reagents (BD). To assess cell proliferation, cells were labeled with Carboxyfluorescein succinimidyl ester (CFSE, ThermoFisher) and analyzed after 7 days of culture. All antibodies were purchased from BD or Beckman Coulter unless otherwise indicated, and all staining procedures were performed according to the manufacturer's recommendation. Data acquisition was performed on a BD FACSCalibur using CellQuest software or a Beckman Coulter Gallios flow cytometer using Kaluza software. Data analysis was performed with FlowJo software (Tree Star Inc.).
BV173 or U266B1 cells and T cells were co-cultured in up to eight replicate wells at various E:T ratios in CTL media with no cytokines, rhTPO (5 ng/mL or 50 ng/mL), or EP (0.1 μg/mL). […] Co-culture supernatants were harvested 24 hours after initial plating or tumor-cell add-back to replicate wells and stored at −80° C. for further analysis.

TCR+c-MPL+ T cells [6] = experiment: Antigen-specific expansion with survivin peptide-pulsed aAPCs, TCR+c-MPL+ T cells; format: cell-based, human; settings: rhTPO 5, 50, 500 ng/ml, two stimulations
Procedure: aAPCs (described above) were pulsed with the […] survivin peptide (Genemed Synthesis), irradiated at 100 cGy, and used to stimulate T cells at an E:T ratio of 4:1 with IL-2 (50 U/mL) or rhTPO (5 ng/mL, 50 ng/mL, or 500 ng/mL). At the end of the first stimulation (7 days), cells were collected, counted, phenotyped and re-stimulated with fresh peptide-pulsed aAPCs under the same conditions. Fold expansion was recorded at the end of the second stimulation.

BV173 leukemia cells [7] = experiment: Co-culture of TCR+c-MPL+ T cells with BV173 leukemia cells; format: cell-based, human; settings: day 5, E:T 1:3; rhTPO 50 ng/ml, IL2 25 U/ml; noCK 16.7±8.1×10^4
Procedure: as §1

c-MPL+ cells = experiment: c-MPL ligand-dependent STAT3/STAT5 phosphorylation in TCR+c-MPL+ T cells; format: cell-based, human; settings: TPO 50 ng/ml or EP 0.1 μg/ml, 1 or 24 hours; c-MPL- cells did not
Procedure: Similar results were obtained with the TPO small molecule agonist EP. A dose-titration experiment was used to determine the optimal concentration of EP to support c-MPL+ T cell expansion (FIG. 2C). EP was previously shown to inhibit leukemia cell proliferation at higher concentrations (1-10 μg/ml) by reduction of intracellular iron, a c-MPL independent effect (Roth et al., 2012). NT or c-MPL+ T cells were re-activated on OKT3/CD28-coated plates in the presence of different EP concentrations and expansion of viable T cells was determined after 7 days. […] Next, it was evaluated whether rhTPO enhanced the anti-tumor function of TCR+c-MPL+ T cells using two different HLA-A*0201+survivin+hematologic malignancies as targets (U266 multiple myeloma, BV173 leukemia) (FIGS. 2E-2F). […]
Cells were stained ith antibodies and analyzed by flow cytometry. […] Cell viability was assessed by 7-AAD staining. T cells and tumor cell populations from co-culture assays were quantified by adding CountBright Beads (Invitrogen) to the analysis. T cell memory marker expression on CD8+ T cells re-covered from co-cultures was analyzed by staining cells with FITC-, PE-, ECD-, PerCP-, APC-, APC-AF750, or V450-conjugated Abs against CD45RO, CD45RA, CD62L, CCR7, CD110, mCβ, CD19, and 7AAD. […]

[8] = after three tumor cell challenges
[9] = baseline after T cell expansion

T cell expansion in TPO 50 ng/ml (cell number by day 7 from 3x10^6 cells) [1] [cells]	Molecule	residual U266 cells (U266 myeloma cells; day 5, E:T 1:1, TCR+c-MPL+ T cells, noCK 43.3±1.1×10^5)	T cell count in U266 co-culture (U266 myeloma cells; day 5, E:T 1:1, noCK 1.84±0.31×10^5)	cell cycle associated genes in T cells from treated co-cultures versus controls (TCR+c-MPL+ T cells [2])	STAT5 phosphorylation in c-MPL+ T cells [3]	c-MPL+ cells in TPO by day 7 (c-MPL+ T cells)	MTOC to synapse distance, co-culture [4, 8] [μm]	perforin distance to the synapse (perforin convergence), co-culture [4, 8] [μm]	actin accumulation at the synapse, co-culture ([4]; after three tumor cell challenges, rhTPO 50 ng/mL or EP 0.1 μg/mL) [%]	MTOC to synapse distance, baseline [4, 9] [μm]	actin accumulation at the synapse, baseline [4, 9] [%]	perforin distance to the synapse (perforin convergence), baseline [4, 9] [μm]	NT cells in TPO by day 7 (NT T cells)	antigen-specific expansion of TCR+ T cells (TCR+ T cells)	T cell expansion in serial co-culture (BV173 leukemia cells [5]; E:T 1:5, versus no cytokines)	CD45RA+CD45RO+ and central memory cells among persistent T cells (BV173 leukemia cells [5]; serial co-culture)	Th1 cytokine production in sequential co-cultures (BV173 leukemia cells [5]; supernatants 24 hours after tumor cell challenge)	antigen-specific expansion of TCR+c-MPL+ T cells (TCR+c-MPL+ T cells [6])	T cell count in BV173 co-culture (BV173 leukemia cells [7])	STAT3 and STAT5 phosphorylation in c-MPL+ cells (c-MPL+ cells)
7.44e+06	recombinant human thrombopoietin (TPO) (from UniProt P40225 22-195) (ligand)	–	–	–	–	–	–	–	–	–	–	–	–	–	–	–	–	–	–	–
–	thrombopoietin (protein, recombinant human thrombopoietin, ligand of c-MPL) SPAPPACDLRVLSKLLRDSHVLHSRLSQCPEVHPLPTPVLLPAVDFSLGEWKTQMEETKAQDILGAVTLLLEGVMAARGQLGPTCLSSLLGQLSGQVRLLLGALQSLLGTQLPPQGRTTAHKDPNAIFLSFQHLLRGKVRFLMLVGGSTLCVRRAPPTTAVPSRTSLVLTLNEL	22.8±11.2×10^5	4.41±5.11×10^5	downregulated	occurred	7.44±0.99×10^6	1.46±1.58	3.68±1.70	52.60±16.32	3.96±2.49	35.23±16.41	3.53±1.00	0.89±0.61×10^6	not	significantly enhanced	enrichment	sustained	expanded in a TPO-dose dependent manner	31.5±19.1×10^4	phosphorylated
